{
  "source": "paper PMC3868960",
  "molecular_target": "tumor necrosis factor-related apoptosis-inducing ligand (TRAIL) (human) (UniProt P50591)",
  "assay": "non-reducing SDS-PAGE",
  "data": [
    {"substance": "tumor necrosis factor-related apoptosis-inducing ligand (TRAIL) (from UniProt P50591 1-281)", "values": [
      {"measurement": "percent dimer", "result": 27.2, "unit": "%"},
      {"measurement": "percent monomer", "result": 70.1, "unit": "%"},
      {"measurement": "percent trimer", "result": 2.62, "unit": "%"}
    ]}
  ]
}
